Experimental data as given in patent US20250145690A1 (US Dept. of Health and Human Services, published 2025).
Where a chain is given by its changes, count along the chain named.

Assays:
Experiment in all cases: bead flow cytometry, AUC minus CD4
[1] = molecular target: SARS-CoV-2 spike receptor binding domain (RBD), recombinant (SARS-CoV-2, UniProt P0DTC2 319-541)
[2] = molecular target: SARS-CoV-2 spike N-terminal domain (NTD), recombinant (SARS-CoV-2, UniProt P0DTC2 14-305)
[3] = molecular target: T1, HCoV-NL63 spike protein (Sino Biological 40604-V08B) (HCoV-NL63, UniProt Q6Q1S2 19-1296)
T1 sequence: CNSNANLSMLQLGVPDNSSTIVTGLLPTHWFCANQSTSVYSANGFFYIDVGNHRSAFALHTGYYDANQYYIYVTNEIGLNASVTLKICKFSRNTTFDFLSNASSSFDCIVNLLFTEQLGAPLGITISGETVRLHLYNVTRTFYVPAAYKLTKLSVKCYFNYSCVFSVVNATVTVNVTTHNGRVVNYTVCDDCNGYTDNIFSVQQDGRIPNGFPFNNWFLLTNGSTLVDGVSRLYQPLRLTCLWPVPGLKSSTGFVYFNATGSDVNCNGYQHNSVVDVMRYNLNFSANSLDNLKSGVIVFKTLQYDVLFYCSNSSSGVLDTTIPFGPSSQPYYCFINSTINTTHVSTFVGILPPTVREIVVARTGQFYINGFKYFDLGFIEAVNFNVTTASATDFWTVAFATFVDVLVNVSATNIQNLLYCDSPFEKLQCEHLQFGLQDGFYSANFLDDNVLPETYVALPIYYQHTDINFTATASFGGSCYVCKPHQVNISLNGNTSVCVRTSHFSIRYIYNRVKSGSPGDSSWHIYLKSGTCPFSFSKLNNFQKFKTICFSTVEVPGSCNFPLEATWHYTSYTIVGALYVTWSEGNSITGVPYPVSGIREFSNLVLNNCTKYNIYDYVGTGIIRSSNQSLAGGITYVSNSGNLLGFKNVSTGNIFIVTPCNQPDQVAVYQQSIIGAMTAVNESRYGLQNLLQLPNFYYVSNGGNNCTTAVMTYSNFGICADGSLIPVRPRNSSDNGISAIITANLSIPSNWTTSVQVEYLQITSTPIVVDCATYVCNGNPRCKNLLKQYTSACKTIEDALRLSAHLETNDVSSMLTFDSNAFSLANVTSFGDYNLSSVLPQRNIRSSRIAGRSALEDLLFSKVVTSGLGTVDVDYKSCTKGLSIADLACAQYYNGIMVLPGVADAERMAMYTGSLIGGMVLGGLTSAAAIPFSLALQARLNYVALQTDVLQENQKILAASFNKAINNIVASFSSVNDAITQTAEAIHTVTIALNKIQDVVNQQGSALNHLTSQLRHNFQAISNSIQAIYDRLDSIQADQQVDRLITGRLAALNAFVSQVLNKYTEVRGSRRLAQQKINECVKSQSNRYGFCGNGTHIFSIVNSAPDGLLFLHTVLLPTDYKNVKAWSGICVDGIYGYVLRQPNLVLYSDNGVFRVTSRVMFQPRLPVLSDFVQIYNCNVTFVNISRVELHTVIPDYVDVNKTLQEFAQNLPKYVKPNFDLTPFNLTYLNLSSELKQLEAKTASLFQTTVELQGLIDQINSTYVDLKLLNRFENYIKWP

[4] = molecular target: T2, HCoV-229E spike protein (Sino Biological 40605-V08B) (HCoV-229E, UniProt P15423 16-1115)
T2 sequence: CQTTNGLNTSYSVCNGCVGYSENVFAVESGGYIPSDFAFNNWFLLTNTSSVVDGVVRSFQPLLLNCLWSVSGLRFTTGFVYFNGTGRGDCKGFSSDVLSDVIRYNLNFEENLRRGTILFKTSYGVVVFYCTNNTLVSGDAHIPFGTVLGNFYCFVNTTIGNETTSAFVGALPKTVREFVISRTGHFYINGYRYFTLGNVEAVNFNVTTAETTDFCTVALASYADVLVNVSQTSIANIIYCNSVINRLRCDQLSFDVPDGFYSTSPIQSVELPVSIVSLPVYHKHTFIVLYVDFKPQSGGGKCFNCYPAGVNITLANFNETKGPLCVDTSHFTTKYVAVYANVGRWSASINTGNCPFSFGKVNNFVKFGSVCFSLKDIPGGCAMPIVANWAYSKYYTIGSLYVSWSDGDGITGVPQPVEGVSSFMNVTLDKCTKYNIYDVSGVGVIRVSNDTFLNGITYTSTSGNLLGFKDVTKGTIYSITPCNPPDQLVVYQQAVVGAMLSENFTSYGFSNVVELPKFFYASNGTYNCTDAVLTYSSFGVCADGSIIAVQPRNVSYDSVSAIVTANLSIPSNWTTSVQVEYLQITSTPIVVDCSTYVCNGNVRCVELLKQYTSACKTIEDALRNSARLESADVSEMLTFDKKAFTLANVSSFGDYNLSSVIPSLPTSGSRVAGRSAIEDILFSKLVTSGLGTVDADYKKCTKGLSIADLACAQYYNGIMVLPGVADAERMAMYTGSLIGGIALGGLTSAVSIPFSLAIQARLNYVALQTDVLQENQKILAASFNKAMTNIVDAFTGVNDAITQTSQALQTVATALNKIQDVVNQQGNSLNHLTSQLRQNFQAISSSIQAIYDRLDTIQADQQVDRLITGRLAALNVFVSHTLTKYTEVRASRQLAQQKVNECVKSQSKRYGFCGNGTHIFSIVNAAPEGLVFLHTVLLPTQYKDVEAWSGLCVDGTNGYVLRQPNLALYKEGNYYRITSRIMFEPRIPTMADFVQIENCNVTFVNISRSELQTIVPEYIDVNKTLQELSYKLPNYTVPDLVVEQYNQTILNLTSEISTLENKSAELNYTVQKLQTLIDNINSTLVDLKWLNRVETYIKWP

Measured: binding result

B1: COV77-09 (antibody, V domains shown)
VH: EVQLVESGGGLVQPGRSLTLSCSGSGFTFGDYSMSWVRQAPGKGLEWLGFIRSQTYGGTTQYAASVQGRFTILRDDSKSIAYLQMNSLKTEDTAVYYCTRNYGVGDYWGQGTLVTVSS
VL: DIVMTQSPASLAVSLGERATIHCRSSLSVLNSSNNKNYLAWYQQKAGQPPKLLMYWASTRESGVPERFSGSGSGTDFTLTISSLEAGDVAVYYCQQYYDKLSLTFGGGTKVEIK
no binding (tested: 200 µg/mL): all assays above

B2: COV23-01 (antibody, V domains shown)
VH: QVTLKESGPVLVKPTETLTLTCTVSGFSLSNTKMGVSWIRQPPGKALEWLAHIFSNDRKSYTTSLKSRLTISEDTSKSQIVLTMTNMDPVDTATYYCARIGAGGTYNFYYYMDVWGKGTTVTVSS
VL: EIVLTQSPATLSLSPGERATLSCRASQSVSSYLAWYQQKPGQAPRLLIYDASNRATGIPARFSGSGSGTDFTLTISSLEPEDFAVYYCQQRSLYYTFGQGTKLEIK
no binding (tested: 200 µg/mL): all assays above

B3: COV49-54 (antibody, V domains shown)
VH: EVQLVESGGGLVQPGGSLRLSCAASGFIVSSNYMSWVRQAPGKGLEWVSMIYSGGSTVYADSVKGRFTISRDISKNTLYLQMNSLRAEDTAVYYCALETFDYWGQGTLVTVSS
VL: DIQMTQSPSSLSASVGDRVTITCRASQGITNHLAWYQQKPGKVPKLLIYAASTLQSGVPSRFSGSGYGTDFTLTISSLQPEDVASYYCQKYDSAPRTFGQGTKVEIK
no binding (tested: 200 µg/mL): all assays above

B4: COV57-34 (antibody, V domains shown)
VH: QVQLVQSGTEVKKPGSSVKVSCRASGGTLSSYSVSWVRQAPGQGLEWMGRIIPILDKKTYAQKYQGRVTIIADTSTSTVYMELSSLKSDDSAVYYCTTFDYDTSGQRDQHDYWGQGTPVTVSS
VL: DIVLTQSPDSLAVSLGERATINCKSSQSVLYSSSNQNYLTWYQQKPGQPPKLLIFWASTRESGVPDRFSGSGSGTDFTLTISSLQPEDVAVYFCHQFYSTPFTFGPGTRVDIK
no binding (tested: 200 µg/mL): all assays above

B5: COV57-13 (antibody, V domains shown)
VH: B4 VH with D89E, P118L
VL: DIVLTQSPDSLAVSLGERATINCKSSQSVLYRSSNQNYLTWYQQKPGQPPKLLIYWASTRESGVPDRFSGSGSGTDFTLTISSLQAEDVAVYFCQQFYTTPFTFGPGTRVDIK
no binding (tested: 200 µg/mL): all assays above

B6: COV44-37 (antibody, V domains shown)
VH: QVQLVQSGAEVKKPGASVMLSCRASGYTFINDYMHWVRQAPGEGFEWMGIINPTGDGTKFAQKFQGRVTMTRDSSTTTVHMELRSLTSGDTAVYFCATGGRQSAFDIWGQGTVVIVSS
VL: DIVMTQSPLSLPVTPGESASISCRSSQSLLQNNGYNYLDWYLQKPGQSPQLLIYLGSYRASGVPDRFSGSGSGTDFTLKISRVEAEDVGVYYCVQAQQAPPLYTFGQGTKLQIK
no binding (tested: 200 µg/mL): all assays above

B7: COV57-38 (antibody, V domains shown)
VH: QVQLVESGGGVVQPGRSLRLSCEASGFNFNNYGMHWVRQAPGKGLEWVAVISYEGSKKYYEDSVRGRFTISRDFSKNTLYLQMNSLRAEDTAVYYCAKANEIFWLGQFKNDALDFWGQGTMVTVSS
VL: QSVLTQPPSASGTPGQRVAVSCSGSSSNIGTNFVNWYQHLPRTAPKLLIYRDNQRPSGVPDRFSGSKSGTSASLAISGLQSEDEADYYCAVWDDSLNGQVFGGGTKVTVL
no binding (tested: 200 µg/mL): all assays above

B8: COV44-74 (antibody, V domains shown)
VH: QVQLVQSGAEVKKPGASVKVSCKASGYTFSSYYMNWVRQAPGQGLEWVGLISPSAGYTAYAQMFQGRVTMTRDTSTSTVYMELSSLRSEDTAVYYCARVAVAGPNDYWGQGTLVTVSS
VL: EIVLTQSPGTLSLSPGERATLSCRASQSISSSYLAWYQQKPGQAPRLVILAASTRATGIPDRFSGSGSGTDFTLTISRLEPEDFALYYCQHYRSSPPLWTFGQGTKVEIR
no binding (tested: 200 µg/mL): all assays above
